Source: PMC7244016, “Knock-down of the TIM/TIPIN complex promotes apoptosis in melanoma cells” (Oncotarget, 2020)

Target: T1, Timeless (TIM), full length, FLAG-tagged (human, UniProt Q9UNS1 1-1208)
T1 construct: expressed from pcDNA4-Flag-Timeless; The plasmid is named Flag-Timeless; the results speak of a fused 3xFLAG-tag; also called flag-TIM; pcDNA4-Flag-Timeless
T1 sequence (looked up): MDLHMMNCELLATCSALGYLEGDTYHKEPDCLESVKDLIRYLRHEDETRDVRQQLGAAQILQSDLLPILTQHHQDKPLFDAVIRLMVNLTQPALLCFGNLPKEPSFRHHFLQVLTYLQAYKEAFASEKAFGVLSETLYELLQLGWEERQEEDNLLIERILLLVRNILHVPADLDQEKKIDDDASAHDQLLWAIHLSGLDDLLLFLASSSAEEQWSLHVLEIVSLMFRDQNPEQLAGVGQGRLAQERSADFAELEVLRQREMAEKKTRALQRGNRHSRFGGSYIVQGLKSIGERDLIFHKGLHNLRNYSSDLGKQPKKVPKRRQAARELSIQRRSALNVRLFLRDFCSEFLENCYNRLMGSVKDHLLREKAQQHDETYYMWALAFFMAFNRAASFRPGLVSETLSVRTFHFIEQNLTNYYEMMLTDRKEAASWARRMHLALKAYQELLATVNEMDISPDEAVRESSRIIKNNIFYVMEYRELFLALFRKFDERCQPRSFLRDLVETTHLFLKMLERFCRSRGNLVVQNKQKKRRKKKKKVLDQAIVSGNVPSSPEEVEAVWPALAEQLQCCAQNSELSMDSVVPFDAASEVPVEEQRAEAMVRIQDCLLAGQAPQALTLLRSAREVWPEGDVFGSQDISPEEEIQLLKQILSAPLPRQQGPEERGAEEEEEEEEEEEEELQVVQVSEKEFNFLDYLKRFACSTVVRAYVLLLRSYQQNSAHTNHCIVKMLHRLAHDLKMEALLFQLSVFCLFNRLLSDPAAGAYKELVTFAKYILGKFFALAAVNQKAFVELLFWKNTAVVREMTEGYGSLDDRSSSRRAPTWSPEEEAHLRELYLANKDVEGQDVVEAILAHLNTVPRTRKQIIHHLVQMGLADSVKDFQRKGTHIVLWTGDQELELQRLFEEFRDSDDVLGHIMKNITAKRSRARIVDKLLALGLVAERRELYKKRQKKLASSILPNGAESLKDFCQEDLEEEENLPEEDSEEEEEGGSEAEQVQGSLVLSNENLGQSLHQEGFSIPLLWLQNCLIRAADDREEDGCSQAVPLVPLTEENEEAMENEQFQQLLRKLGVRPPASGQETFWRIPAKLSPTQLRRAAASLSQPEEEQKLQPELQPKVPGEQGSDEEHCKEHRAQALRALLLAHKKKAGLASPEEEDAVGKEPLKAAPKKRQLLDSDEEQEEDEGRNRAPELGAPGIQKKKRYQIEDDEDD
Assay: SEC; complex co-expressed in 293F cells and FLAG-purified; Superose 6 column in 50 mM HEPES pH 7.8, 150 mM NaCl, 0.5 mM TCEP; peak fractions checked by SDS-PAGE/Coomassie and immunoblot with TIM and TIPIN antibodies
Settings: both partners purified

stoichiometry N: 1
B1: TIM-interacting protein (TIPIN), full length, FLAG-tagged (natural protein, human, UniProt Q9BVW5 1-301, looked up)
chain: MLEPQENGVIDLPDYEHVEDETFPPFPPPASPERQDGEGTEPDEESGNGAPVRVPPKRTVKRNIPKLDAQRLISERGLPALRHVFDKAKFKGKGHEAEDLKMLIRHMEHWAHRLFPKLQFEDFIDRVEYLGSKKEVQTCLKRIRLDLPILHEDFVSNNDEVAENNEHDVTSTELDPFLTNLSESEMFASELSRSLTEEQQQRIERNKQLALERRQAKLLSNSQTLGNDMLMNTPRAHTVEEVNTDEDQKEESNGLNEDILDNPCNDAIANTLNEEETLLDQSFKNVQQQLDATSRNITEAR
notes: expressed from pcDNA3-Flag-Tipin; also called flag-TIPIN; pcDNA3-Flag-Tipin
